T1: recombinant human GPC4-Fc (human, UniProt O75487 19-529, limits assumed)
T1 construct: Bought protein; also called RD System Cat #9195-GP; not shown: Fc
T1 sequence (looked up): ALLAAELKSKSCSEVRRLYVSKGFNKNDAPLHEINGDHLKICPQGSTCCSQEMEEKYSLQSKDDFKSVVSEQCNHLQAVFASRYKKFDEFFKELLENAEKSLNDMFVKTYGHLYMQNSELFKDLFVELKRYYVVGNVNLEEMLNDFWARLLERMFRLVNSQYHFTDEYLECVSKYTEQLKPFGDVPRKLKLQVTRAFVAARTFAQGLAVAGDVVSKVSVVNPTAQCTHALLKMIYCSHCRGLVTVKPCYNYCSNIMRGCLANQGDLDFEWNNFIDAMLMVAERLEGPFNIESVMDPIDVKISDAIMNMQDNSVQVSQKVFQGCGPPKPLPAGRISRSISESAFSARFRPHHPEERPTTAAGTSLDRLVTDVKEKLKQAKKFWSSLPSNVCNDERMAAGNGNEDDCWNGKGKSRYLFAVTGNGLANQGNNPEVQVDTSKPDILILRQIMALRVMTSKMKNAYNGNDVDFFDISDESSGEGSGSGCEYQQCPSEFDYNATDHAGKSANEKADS

T2: cynomolgus monkey GPC2 on cells (HEK293T/cynoGPC2) (Cynomolgus monkey (Macaca fascicularis), UniProt A0A2K5X5G1 24-551)
T2 construct: whole, on cells; also called Cynomolgus monkey (Macaca fascicularis) GPC2
T2 sequence: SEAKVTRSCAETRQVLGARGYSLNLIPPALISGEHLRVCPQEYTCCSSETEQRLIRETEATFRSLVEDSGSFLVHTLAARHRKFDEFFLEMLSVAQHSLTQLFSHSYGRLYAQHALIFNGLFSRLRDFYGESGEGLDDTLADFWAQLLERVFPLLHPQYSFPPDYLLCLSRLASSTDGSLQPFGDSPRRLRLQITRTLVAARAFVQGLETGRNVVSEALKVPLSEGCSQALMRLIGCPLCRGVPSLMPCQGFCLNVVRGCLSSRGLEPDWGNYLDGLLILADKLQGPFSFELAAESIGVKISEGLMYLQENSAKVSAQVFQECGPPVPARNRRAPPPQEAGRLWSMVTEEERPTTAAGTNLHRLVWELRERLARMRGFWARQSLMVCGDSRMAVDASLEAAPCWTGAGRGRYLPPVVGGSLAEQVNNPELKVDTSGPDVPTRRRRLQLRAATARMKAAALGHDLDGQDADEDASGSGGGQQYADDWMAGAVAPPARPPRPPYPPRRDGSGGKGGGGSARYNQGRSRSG

T3: human GPC2 on cells (SH-SY5Y, IMR-32, HEK293T/hGPC2) (human, UniProt Q8N158 24-554)
T3 construct: whole, on cells; GPI-anchored proteoglycan on the cell surface; also called cell-surface human GPC2; GPC2 positive cells
T3 sequence (looked up): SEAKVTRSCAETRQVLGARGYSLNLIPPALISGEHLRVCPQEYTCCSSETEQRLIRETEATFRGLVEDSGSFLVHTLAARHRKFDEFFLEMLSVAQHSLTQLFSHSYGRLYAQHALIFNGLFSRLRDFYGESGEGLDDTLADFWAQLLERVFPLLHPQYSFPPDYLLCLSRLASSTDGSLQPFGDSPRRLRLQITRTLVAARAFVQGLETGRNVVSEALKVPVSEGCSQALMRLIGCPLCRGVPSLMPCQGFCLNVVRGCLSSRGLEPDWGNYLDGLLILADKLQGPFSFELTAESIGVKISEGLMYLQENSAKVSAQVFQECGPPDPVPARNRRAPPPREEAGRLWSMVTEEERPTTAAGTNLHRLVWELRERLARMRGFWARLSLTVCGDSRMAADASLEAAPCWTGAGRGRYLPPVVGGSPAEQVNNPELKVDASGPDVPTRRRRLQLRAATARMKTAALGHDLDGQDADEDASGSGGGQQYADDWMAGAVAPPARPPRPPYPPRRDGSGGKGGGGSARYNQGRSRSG

T4: recombinant human GPC2-His protein (human, UniProt Q8N158 24-554, limits assumed)
T4 construct: Bought protein; The SPR paragraph gives no catalogue number for GPC2-His; also called recombinant Human Glypican 2 Protein; recombinant human GPC2 protein; not shown: His tag
T4 sequence (looked up): T3 sequence (looked up)

B1: AS78117VH4 VHH-His recombinant antibody (VHH)
VHH: EVQLVESGGGLVQPGGSLRLSCIVSRYTYATYSMAWFRQAPGKGLEGVSGLDSVGATGYAESVKGRFTISRDNSKNTLYLQMNSLRAEDTAVYYCVVDPASAKVTYGSWSTPSYAYWGQGTLVTVSS
notes: the result sentence still names the hIgG1Fc form
B2: AS79236VH6 VHH-His recombinant antibody (VHH)
VHH: EVQLVESGGGLVQPGGSLRLSCAVSGYTYSSYCMAWFRQAPGKGLEGVASIDAGGRTTYVDSVKGRFTISKDNAKNSLYLQMNSLRAEDTAMYYCAVDVRTRCGGTWDGEAVYFPYWGQGTLVTVSS
notes: as for B1
B3: AS70950VH6 anti-GPC2 VHH-His protein (VHH)
VHH: EVQLVESGGGLVQPGGSLRLSCAISEFTYKNTCVGWFRQAPGKGREGVAAIDSDGNTNYVDSVKGRFTISQDNSKNTVYLQMNSLRAEDTAMYYCAAGAYCGRLLLWIGNYAYWGQGTLVTVSS
B4: AS71529VH6-AS70950VH6 anti-GPC2 VHH-His protein (VHH)
chain: EVQLVESGGGLVQPGGSLRLSCAVSEYRYSSRYCMGWFRQAPGKGREGVAAIDSNGSADYVDSVKGRFTISKDNSKNTLYLQMNSLRAEDTAMYYCAADHLAYDCYSGATSVFRYWGQGTLVTVSSGGGGSGGGGSGGGGSEVQLVESGGGLVQPGGSLRLSCAISEFTYKNTCVGWFRQAPGKGREGVAAIDSDGNTNYVDSVKGRFTISQDNSKNTVYLQMNSLRAEDTAMYYCAAGAYCGRLLLWIGNYAYWGQGTLVTVSSHHHHHH
notes: Tandem of two different anti-GPC2 VHH domains
B5: AS72669VH6 anti-GPC2 VHH-His protein (VHH)
VHH: QVQLVESGGGVVQPGGSLRLSCAASRFTYSSYCMGWIRQAPGKGREGVAIFYTGGGRTYYADSVKGRFTISQDNSKNTLYLQMNSLRAEDTAVYYCVAGFYCSGGYWEGDFGYWGQGTLVTVSS
B6: AS71529VH6-hIgG1Fc (Fc fusion)
chain: EVQLVESGGGLVQPGGSLRLSCAVSEYRYSSRYCMGWFRQAPGKGREGVAAIDSNGSADYVDSVKGRFTISKDNSKNTLYLQMNSLRAEDTAMYYCAADHLAYDCYSGATSVFRYWGQGTLVTVSS
notes: also called anti-GPC2 VHH-hIgG1Fc; not shown: human IgG1 Fc fragment (hIgG1Fc)
B7: AS71529VH6-AS70950VH6-hIgG1Fc (Fc fusion)
chain: EVQLVESGGGLVQPGGSLRLSCAVSEYRYSSRYCMGWFRQAPGKGREGVAAIDSNGSADYVDSVKGRFTISKDNSKNTLYLQMNSLRAEDTAMYYCAADHLAYDCYSGATSVFRYWGQGTLVTVSSGGGGSGGGGSGGGGSEVQLVESGGGLVQPGGSLRLSCAISEFTYKNTCVGWFRQAPGKGREGVAAIDSDGNTNYVDSVKGRFTISQDNSKNTVYLQMNSLRAEDTAMYYCAAGAYCGRLLLWIGNYAYWGQGTLVTVSS
notes: Two different anti-GPC2 VHH domains in tandem, fused to a human IgG1Fc fragment; also called tandem anti-GPC2 VHH-hIgG1Fc; not shown: human IgG1 Fc fragment (hIgG1Fc)
B8: AS72669VH6-hIgG1Fc (Fc fusion)
chain: B5 VHH
notes: as for B6
B9: AS71529VH6 anti-GPC2 VHH-His protein (VHH)
VHH: B6 chain

Target: T1, recombinant human GPC4-Fc
Assay: ELISA on GPC4 coated plate; by paragraph 266 the VHH-His form with anti-His tag secondary was used on GPC4-Fc; the sheet's title prints the hIgG1Fc form and its legend 'rhGPC4-his'
Experimental: To evaluate the specificity of humanized anti-GPC2 VHH5 to recombinant human GPC2 protein, an ELISA-based binding assay was conducted to determine the differential target proteins binding of anti-GPC2 VHH5. Briefly, microplates were coated with 2 μg/mL recombinant human GPC1-His (RD System, Cat #4519-GP), GPC2-His (RD System, Cat #2304-GP), GPC3-His (ACRO, Cat #GP3-H5223), GPC4-Fc (RD System, Cat #9195-GP), GPC5-His (RD System, Cat #2607-G5/CF), GPC6-His (RD System, Cat #2845-GP) or recombinant mouse GPC2-His (RD System, Cat #2355-GP) proteins. Recombinant human protein coated plates were blocked with skim milk. Serially diluted humanized VHH-hIgG1Fc recombinant antibodies were added to each well of the plates and incubated at 4° C. for 1.5 h. Samples were further labelled with HRP-conjugated goat anti human IgG (H+L) secondary antibody (Genescript, Cat #A00166-1) and signal was developed with 3,3′,5,5′-Tetramethylbenzidine (TMB) substrate according to manufacturer's instruction. For the GPC4, VHH-His recombinant antibodies and anti-His tag secondary antibody (Genescript, Cat #A00612) were added to the GPC4-Fc coated plates instead. Optic density at 450 nm was measured by plate reader.

binding result | Binder
no binding (tested: about 300 nM) | B1
no binding (tested: about 300 nM) | B2
no binding (tested: about 300 nM) | B3

Target: T2, cynomolgus monkey GPC2 on cells …
Assay: flow cytometry on HEK293T/cynoGPC2 cells, VHH-His detected with anti-His tag antibody (iFluor 647), median fluorescence intensity, four-parameter fit
Experimental: (§1) Binding affinities of humanized VHH proteins AS70950VH6, AS71529VH6, AS72669VH6 and AS71529VH6-AS70950VH6 anti-GPC2 VHH-HIS proteins to human GPC2 expressing cells (SH-SY5Y and HEK293T/hGPC2) and cynomolgus monkey GPC2 expressing cell (HEK293T/cynoGPC2) were determined using flow cytometry. Briefly, serially diluted anti-GPC2 VHH-HIS proteins were incubated with 2×10⁵ target cells at 4° C. for 30 mins. After washing, cells were further labelled with THE™ His tag Antibody (iFluor 647) (Genescript, #A01802) at 4° C. for 30 mins. Fluorescence intensity was measured by flow cytometry. A four parameters variable slope curve was fitted to each group using GraphPad Prism for Windows Version 6.02. As shown in FIG. 4A-FIG. 4C, exemplary AS70950VH6, AS71529VH6, AS72669VH6 and AS71529VH6-AS70950VH6 specifically bind to SH-SY5Y, HEK293T/hGPC2 and HEK293T/cynoGPC2 in a dose-dependent manner.

EC50 (read off the curve) | Binder
~5 nM | B4
~5 nM | B5
~5 nM | B3

Target: T3, human GPC2 on cells (SH-SY5Y, IMR-32, …)
Assay: flow cytometry on HEK293T/hGPC2 cells, VHH-His detected with anti-His tag antibody (iFluor 647), median fluorescence intensity, four-parameter fit
Experimental: as §1

EC50 (read off the curve) | Binder
~5 nM | B4
~4 nM | B5
~2 nM | B3

Target: T4, recombinant human GPC2-His protein
Assay: SPR, Biacore T200, GPC2-His amine-coupled to CM5 chip, VHH-hIgG1Fc as analyte, 1:1 model
Experimental: Each of the exemplary anti-GPC2 VHH sequences was cloned into a vector comprising a human IgG1Fc fragment (hlgG1Fc) sequence to facilitate recombinant expression of anti-GPC2 VHH-hlgG1Fc. Recombinant proteins were obtained and purified for SPR assays. The affinity of each anti-GPC2 VHH-hIgG1Fc for GPC2 was determined by SPR using a BIACORE® T200 analytical system (GE Healthcare). Briefly, recombinant human GPC2-His protein was covalently coupled to a CM5(s) sensor chip using an amine coupling kit. Exemplary VHH-hIgG1Fc proteins were serially diluted in running buffer (10 mM HEPES, 150 mM NaCl, 3 mM EDTA, 0.05% Tween-20, pH 7.4) and injected over the chip cell at a flowrate of 100 μL/min for 100 seconds followed by buffer-only injection for 300 seconds to allow for antibody dissociation. The dissociation […] (KD) were determined using the BIACORE® T200 evaluation software version 3.0 (Langmuir binding, local fit, 1:1 binding model).

Kd | koff | kon | Binder
5.1 nM | 0.0044 s⁻¹ | 850000 M⁻¹ s⁻¹ | B6
0.19 nM | 6.1e-05 s⁻¹ | 320000 M⁻¹ s⁻¹ | B7
0.15 nM | 7.7e-05 s⁻¹ | 520000 M⁻¹ s⁻¹ | B8

Target: T3, human GPC2 on cells (SH-SY5Y, IMR-32, …)
Assay: flow cytometry on SH-SY5Y cells, VHH-His detected with anti-His tag antibody (iFluor 647), median fluorescence intensity, four-parameter fit
Experimental: as §1

EC50 (read off the curve) | Binder
~100 nM | B9
~3 nM | B4
~2 nM | B5
~3 nM | B3

— patent publication US20230136252A1 (NANJING LEGEND BIOTECH, published 2023)
